Assay results from publication PMC9399999 (Nature Communications, 2022).

Target: Omicron RBD (SARS-CoV-2 Omicron BA.1 (B.1.1.529), S371L | S373P | S375F | K417N | G446S | S477N | E484A | Q493R | G496S | Q498R | …)
Test: SPR
Settings: both partners purified

B1: S304 antibody (IgG1) (antibody, V domains shown)
VH: EVQLVESGGGLVQPGGSLRLSCAASGFTFSSYDMHWVRQTTGKGLEWVSTIGTAGDTYYPDSVKGRFTISREDAKNSLYLQMNSLRAGDTAVYYCARGDSSGYYYYFDYWGQGTLLTVSS
VL: DIQMTQSPSSLSAAVGDRVTITCRASQSIGSYLNWYQQKPGKAPKLLIYAASSLQSGVPSRFSGSGSGTDFTLTISSLQPEDFAIYYCQQSYVSPTYTFGPGTKVDIK
notes: IgG1
  Kd: 1.01 nM
